The values that follow come from the nanobody polyreactivity screen of Harvey et al. (2022).

The data set in a line: yeast display, Sf9 membrane polyspecificity reagent, FACS + sequencing; frameworks hold sequencing errors. The method in brief:
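Nanobodies from a synthetic yeast display library (Saccharomyces cerevisiae BJ5465), induced 36–48 hours with galactose, were stained 1 hour at 4 °C with 10% biotinylated, detergent-solubilized Sf9 membrane reagent, enriched on streptavidin microbeads, then FACS-sorted. Anti-HA (expression) and streptavidin (reagent binding) fluorescence set low and high (top ~1%) gates. Polyreactivity labels come from the gate of origin. Genes were colony-PCR amplified, MiSeq 2 × 250 sequenced and filtered by CDR length.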
Regarding “QVQLGESGGGLVQAGGSLRLSCAASGSIFVRNAMGWYRQAPGKERELVAAINGRGTSTYYADSVKGRFTISRDNAKNTVYLQMNSLKPEDTAVYYCATSLTSPRRAYGYWGQGTQVTVSS”, the “polyreactivity (PSR sort gate)” value is listed as “high polyreactivity”.
To “QVQLVESGGGLVQAGGSLRLSCAASGSSFNSYAMGWYRQAPGKERELVASITRGGSTYYADSVKGRFTISRDNAKTTVYLQMNSLKPEDTAVYYCAARFTQHNYWAMDYRGQGTQVTVSS” belongs “high polyreactivity”; to “QVQLVESAGGLVQAGGSLRLSCAASGSTFVGYAMGWYRQAPGKERELVAAISGSGTSTYYADSVKGRFTISRDNAKNTVYLQMNSLKPEDTAVYYCNADPIFVYSSYNYWGQGTQVTVSS”, “low polyreactivity”.
As to “QVQIVESGARLVQAGGSLRLSCAASGRTFYAYAMGWYTQAPGKDREYFASIRLRGGSTYYADSVKGRFTISRDNAKNTVYLQMHSLKPEDTAVYYGNAFYGGSSSYWYYSWGQGTQVTVSS”, the “polyreactivity (PSR sort gate)” value was “high polyreactivity”.
Turning to “QVQIVESGGGLVQAVGSLRLSCAASGRIFHYNSMRWYRQAPGKERELVAAITDSTGGSTYYADSVKGRFTISRDNAKNTVYLQMNSLKPEDTAVYYFAAQDYQYSDYQWWFGYWGQGTKVTVSS”, the “polyreactivity (PSR sort gate)” value is recorded as “low polyreactivity”.
Turning to “QVQLVESGGGLVQAGGSLRLSCAASGNIFYINAMGWYRQAPGKERELVAAISSGGRTNYADSVKGRFTISRDNAKNTVYLQMNSLNPEDTEVYYCNADGWYAWRYYAPGGYDYWGQGTQVTVSS”, the “polyreactivity (PSR sort gate)” value was “low polyreactivity”.
For “QVQLVESGGGLVQAGGSLRLSCAASGSTFWVNAMGWYRQAPGKERELVAAISNSGGSTYYADSVKGRFTISRDNAKNTVYLQMNSLKPEDTAVYYCAAAGGVDYDYWGQGTQVTVSS”, the “polyreactivity (PSR sort gate)” value is recorded as “low polyreactivity”.
To “QGQLVESGGGLVQAGGSLRLSCAASGSIFYYNDMGWYRQAPGKEWELVATITNGGGTNYADSVKGRFTISRDNAKYTVYLQMNSLKPEDTAVYYCAADLWPTVTASGDLIVKFDYWGQGTQVTVSS” belongs “low polyreactivity”.
To “QVQLQERGGGLVQAGGSLRLSCAASGSIFQYTLMGWYLQAPGKEREFVAAITDGANTNYADSVKGRFSISRDNAKNTVNLQMNSLKPEETAVYYCATDYGYTDRVTSGFDYWGLGTQVTVSS” belongs “low polyreactivity”; to “QVQLVESGGGLVQAGGSLRLSCAASGFIFGVYAMGWYRQAPGKERELVAAISRSGGSTYYADSVKGRFTISRDNAKNTVYLQMNSLKPEDTAVYYCATQVSWYGKGYYYWGQGTQVTVSS”, “high polyreactivity”.
To “QVQLVESGGGLVQAGGSLRLSCAASVLTFETYAMGWYRQAPGKERELVAAISFSGDSTYYADSVKGRFTISRDNAKNTVYLQMNSLKPEDTAVYYCAAEQYYAWYIVGPDYYYWGQGTQVTVSS” belongs “high polyreactivity”; to “QVQLVESGGGLVQAGGSLRLSCAASGITFHRNTMGWYRQAPGTETELVDSITSGGITYYADSVKGSFTISRDNEKNTVYLQMNSLKPEDTAVYYCAAEGYWTYWVARSDIPYFYWGQGSQVTVSS”, “high polyreactivity”; to “QVQLVDSGGGLVQAGGSLRLSCAASGSIFLGYAMGWYRQAPGKVREFVAAITWSGGSTYYADSVKGRFTISRDIAKNTVYLQMNSLKQEDTAVYYCAVEIWIPTWYGLSGEYDYWGQGTQVTVSS”, “low polyreactivity”.
For the sequence “QVQLVESGGGLVQAGGSLRLSCAASGRTFWAYAMGWYRQAPGKERELVAVIRGSGNTYYADSVKGRFTISRDNAKNTVYLQMNSLKPEDTAVYYCAASRAVTQYSGGGYWGQGTQVTVSS”, the “polyreactivity (PSR sort gate)” value is recorded as “high polyreactivity”.
To “QVQLVESGGGLVQAGGSLRLSCAASGFTFRSNAMGWSRQAPGKERELVAAISYSGGDTYYADSVKGRFTISRDNAKNTVYLQMNSLKPEDTAVYYCAADDPASPLGEYWGQGTQVSVSS” belongs “low polyreactivity”; to “QDQLVESGGGLVQAGGSLRLSCAASGSIFFARYSMGWYTQAPGKERELVAAITRATSTTYADSVKGRFTISRDNAKNTVYLQMKSLKPEDTAVYYCNADPAYQFDYWGQGTQVTVSS”, “high polyreactivity”.
To “QVQLVESGGGLVQAGGSLRLSCAASGNTTPVNAMGWYRQAPGKERQLVAAITQSGGSTYYADSVKGRFTISRDNAKNTVYLQMNSLKPEDTAVYYCAADYGHYYGLYYWGQGTQVTVSS” belongs “low polyreactivity”; to “QVQLVESGGGLVQAGGSLRLSCAASGRNFTSNTMGWYRQAPGTETELVAAITSSGGSMYYADSVKGRFTISRDNAKNTVYLQMNSLKPEDTAVYYCAADTIGYHYWYDYWGQGTQVTVSS”, “low polyreactivity”.
To “QVQLVESGGGLVQAGGSLRLSCAASGITFRTNTMGWYRQAPGKERELVAAITRSGVTTYYADSVKGRFTISRDNAKNTVYLQMNSLKPEDTAVYYCAAKSFYAHYDYWGQGTQVTVSS” belongs “high polyreactivity”; to “QVQLVESGGGLVQEGGSLRLSCAASGSIFVLYAMGWYRQAPGKERQLVAAINYEGASTYYADSVKGRFTISRDNAKITVYLQMNSLKPEDKAVFYCAARWQFNIDVQLYLFEYWGQGTQVTVSS”, “low polyreactivity”.
With “QVQLVESGGGIVQAGGSLRLSCAASGRIFYVNAMGWYRQSPGKERELVAAISRSGSSTYYADSVKGRFTISRDNAKNTVYLQMNSLKPEDTAVYYCAARYYGRSQHHFDYWGQGTQVTVSS”, the “polyreactivity (PSR sort gate)” value is recorded as “high polyreactivity”.
As for “QVQLVESGGGLVQAGGSLRLSCAASGRTFGRYPMGCYRQAPGKERELVAAIRYSGSSTYYADSVKGRFTISRDNAKNTVYLQMYSLKPEDTAVYYCAKRYYGKDYWGQGSQVTVSS”, the “polyreactivity (PSR sort gate)” value is on record as “high polyreactivity”.
Regarding “QVQPVESGAGLVQAGGSLRLSCAASGSIFWSYAMGLYRQAPGKERELVAAITTSDGSTYYADSVKWRFTISRDNAKNTVYLQMNSLKPEDTAVYYCAADTYYVSYGYYYWGQGTQVTVSS”, the “polyreactivity (PSR sort gate)” value is “low polyreactivity”.
To “QVQLVESGGGLVQAGGSLRLSCAASGRTFITYAMGWYRQAPGKERELVAAISSGGGRTYYADSVKGRFTISRDNAKNTVYLQMNSLKPEDTAVYYCAALYVYPLTYKPSRYPYDYWGQGTQVTVSS” belongs “high polyreactivity”; to “QVQLVESGGGLVQAGGSLRLSCAASGNIFSYYAMGWYRQAPGKERELVAAIYTGGSTYYADSVKGRFTISRDNAKNTVYLQMNSLKPEDTAVYYCAARGLKLRQDYDYWGQGTQVTVSS”, “low polyreactivity”; to “QVQLVESGGGLVQAGGSLRLSCAASGLTFVYYAMGWYRQAPGNERELVAAISRRGGSTNYADSVKGRFTISRDNAKNTVYLQMNSLKPEDTAVYYCAATSRYFQPPGYGGGRIGYGYWGQGTQVTVSS”, “high polyreactivity”.
To “QVQLVESGGGLVQAGGSLRLSCAASGLNFYGYFMGWYRQAPGKERELVAAISATGGSTYYADSVKGRFTISRDTAKNTVYLQMNSLKPEETAVYYCAATYYSYTWFSQYYYWGQGTQVTVSS” belongs “high polyreactivity”.
To “QVQLVESGVGLVQAGGSLRLSCGASGSIFVANVMGWYRQAPGKEREFVATISWNGGNTYYADSVKGRFTISRDNAKNTVYLQMNSLKPEDTAVYYCAAEPLTPSRDRVPYEYYYWGQGTQVTVSS” belongs “high polyreactivity”; to “QVQLVESGGGLVQAGGSLRLSCAASGFIFGYYAMGWYRQAPGKERELVAAINRSGSTYYADSVKGPFTISRDNAKNTVYLQMNSLKPEDTAVYYCKLRHYVGLSKGDYWGQGTQVTVSS”, “high polyreactivity”; to “QVQLVESGGGLVQAGGSLRLSCAASGRILYWYAMGWYRQAPGKERELVAGIDWSGGSTYYADSVKGRFTISRDNAKNTVYLQMNSLKPEDTAVNYCNAVQNRGRGSHRGESTYYYWGQGTQVTVSS”, “low polyreactivity”.
As for “QVQLVESGGGLVQAGGSLRLSCAASGRIFTGNARGWYRQAPGKERELVAGISTSGGSTYYADSVKGRFTISRDNAKNTVYLQMTSLTPEDTAVYYCAAAYVHYVYKYDYWGQGTQVTVSS”, the “polyreactivity (PSR sort gate)” value is listed as “high polyreactivity”.
To “QVQLVESGGGLVQAGGSLRLSCAASGSTFQYYAMGWYRQAPGKERELVAAISYGGSRTYYADSVKGRFTISRDNAKNNVYLQMNSLKPEDTAVYYCAKVKYRALAPYYYWGQGTQVTVSS” belongs “high polyreactivity”.
To “QVQLVESGGGLVQAGGSLRLSCAASGSIFVDYAMGWYRQAPGKERELVAAISSGGSTNYADSVKGRFTISRDNAKNTVYLQMNSLKPEDTAVYYCAADGSYGYDYWGQGTQVTVSS” belongs “low polyreactivity”; to “QEQLVESGGGLVQAGGSLRLSCGASRSIVHYYAMGWYRQAPGKEREFVAAIAWGGDSTYYADSVKGRFTNSRDNANNTVYFQMYSLKPEDTAVYYCAADGPGGIGNGAGYDYWGQGTEVTVSS”, “low polyreactivity”.
To “QVQLVESGGGLVQAGGSLRLSCAASGNIFSDYAMGWYRPAPGKERELVAAISSGGNTNYADSVKGRFTISRDNAKNTVYLQMNSLKPEDTAVYYCAADPGYYVSAYDYWGQGTQVTVSS” belongs “low polyreactivity”; to “QVQLVESGGGLVQAGGSLRLSCAASGSTFRYYAMGWYRQAPGKERELVAAISRSGTSTYYADSVKGRFTISRDNAKKTVYLQMNSLKPEDTAVYYCAADWHSKIGKGYDYWGQGTQVTVSS”, “high polyreactivity”; to “QVQLVESGGGLVQAGGSLRLSCAASGSTIFSYAMGWYRQAPGKERELVAAISWIDDGTYYADSVKGRFTISRDNAKNTVYLQMNSLKPEDTAVYYCAADIGAYRTWDYEYWGQGTQVTVSS”, “low polyreactivity”.
Consider “QVQLVESGGGLVQAGGSLRLSCAASGSTFSWNTMGWYRQAPGNERELVAAINSGGSTYYADSVKGRFTISRDNAKNTVYLQMNSLIPEDTAVYYCASRTKYYGRFDYWGQGTQVTVSS”, for which the “polyreactivity (PSR sort gate)” value was “low polyreactivity”.
To “QVQLVESGGGLVQAGGSLRLICAASGRIFKINAMGWYRQAPGKERELVAGISGSGSDTYYADSVKGSFTISRDNAKYTVYLQMNSLKPEDTAVYYCAAVAYDWALFYYWGQGTQVTVSS” belongs “low polyreactivity”; to “QVQLVESGGGLVQAGGSLRLSCAASGRIFRQNAMGWYRQAPGKERELVAAISRSGGSTYYADSVKGRFTISRDNAKNTVYLQMNSLNPEDTAVYYCNRDYQSQRTYPRRYDYWGQGTQVTVSS”, “low polyreactivity”.
As to “QVHLVESGGGLVQAGGSLRLSCAASGRIFSRNVMGWYRQAPGKERELVAAISSSGSTYADSVKGRFTISRDNAKNTVYLQMNSLKPEDTAVYYCAAVIYLWGQGTQVTVSS”, the “polyreactivity (PSR sort gate)” value was “high polyreactivity”.
